From patent US20260297176 (published 2026)
Where a chain is given by its changes, count along the chain named. Names and notes keep the numbering of the source.

T1: mouse IL-11 (mouse, UniProt P47873)
T1 chain: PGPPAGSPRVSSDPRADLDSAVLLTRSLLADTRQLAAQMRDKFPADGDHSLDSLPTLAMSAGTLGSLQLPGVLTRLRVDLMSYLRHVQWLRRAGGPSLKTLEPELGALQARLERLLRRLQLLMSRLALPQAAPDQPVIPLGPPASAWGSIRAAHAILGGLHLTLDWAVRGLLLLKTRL

T2: human IL-11 (human)
T2 chain: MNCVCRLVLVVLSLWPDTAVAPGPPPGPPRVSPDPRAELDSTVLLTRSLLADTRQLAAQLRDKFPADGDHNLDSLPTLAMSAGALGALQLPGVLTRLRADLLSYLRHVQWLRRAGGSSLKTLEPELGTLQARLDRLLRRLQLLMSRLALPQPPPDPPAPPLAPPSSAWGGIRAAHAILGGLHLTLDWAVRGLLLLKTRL

B1: CSJ-A-s-2B11 (antibody, V domains shown)
VH: QVQLKESGPGLVQPSQTLSLTCTVSGFSLDNYNVHWVRQPTGGGLEWLGGIWTDGITDYTSPLRSRLSISRDTSKSQVFLKMKSLQTEDIATYYCARSYYYSLYYFDYWGQGVMVTVSS
VL: DIQMTQSPASLSASLGETVTIECRASEDIYSNLAWYQQKPGDSPQLLIYDAHRLAEGVPSRFSGSGSGTQYSLKINSLHSEDVASYFCQQYDNYNTFGVGTKLDLK
B2: CSI-s-9B9 (antibody, V domains shown)
VH: EVHLQQSGPELVKPGASVKMSCKASGYTFTSYVIHWVKQRPGQGLEWIGNIYPYNDDTNYNEKFKGKATLTSDKSSSTAYMELSSLTSEESAVYFCTRERATYGDLAWFAYWGQGTLVTVSA
VL: NIVLTQSPASLAVSLGQRATISCRASENIDSYGNSFMHWYQQKPGQPPKLLIYLASILESGVPARFSGSGSRTDFTLTIDPVEADDAATYYCQQNNEDPYTFGGGTKLEIK
B3: CSJ-B-s-3G8 (antibody, V domains shown)
VH: QVTLKESGPGMLQPSKTVSLTCSFSGFSMSTSGMVVSWIRQPSGKSLEWLAAIDWDGEKYYNPSLKSRLTVSKDTSNTQVFLKISSVDIADSATYYCARSGNYFDYWGQGVMVTVSS
VL: DIQMTQSPASLSASLGETVTIECRASEDIYNGLVWYQQKPGKSPQLLIYDANRLHTGVPSRFSGGGSGTQYSLKINSLQSEDVASYFCQQYYDYPNTFGAGTKLELK
B4: CSJ-A-s-10D10 (antibody, V domains shown)
VH: QVQLKESGPGLVQPSQTLSLTCTVSGFSLTNYHVHWVRQPPGKGLEWMGVMWIDGDTSYNSALRSRLSISRDTSKSQVFLKMSSLQTEDTATYYCAREGLNWFAYWGRGTLVTVSS
VL: DIQMTQSPASLSVSLEEVVTITCKASQGIDDYLSWYQQKPGKSPQLLISDVTSLADGVPSRFSGSRSGTQYSLKISRPQVDDSGIYYCLQSYSTPYTFGAGTKLELK
B5: GVH5 (D54E)/GVL5 (antibody, V domains shown)
VH: QITLKESGPTLVKPTQTLTLTCTFSGFSLSTSGMVVGWIRQPPGKALEWLAAIDWEGEKYYSPSLKSRLTITKDTSKNQVVLTMTNMDPVDTATYYCARSGNYFEYWGQGTLVTVSS
VL: DIQMTQSPSSLSASVGDRVTITCRTSEDIYNALAWYQQKPGKAPQLLIYDANRLHIGVPSRFSGSGSGTDFTLTISSLQPEDFATYYCQQYYDYPNTFGQGTKLEIK
B6: CVH3 (D54E)/CVL3 + YTE (antibody, V domains shown)
VH: QVQLQESGPGLVKPSQTLSLTCSFSGFSLSTSGMVVSWIRQPPGKALEWLAAIDWEGEKYYNPSLKSRLTVTKDTSNTQVVLTMTNMDPVDTATYYCARSGNYFEYWGQGTLVTVSS
VL: B5 VL with I2N, S60D, P80A, F83V, T85V
B7: CVH4 (D54E)/CVL3 (antibody, V domains shown)
VH: B6 VH with N77K, T78N
VL: B5 VL with I2N, S60D, P80A, F83V, T85V
B8: GVH5 (D54E)/CVL3 (antibody, V domains shown)
VH: B5 VH
VL: B5 VL with I2N, S60D, P80A, F83V, T85V
B9: GVH5 (D54E)/GVL5 + YTE (antibody, V domains shown)
VH: B5 VH
VL: B5 VL
B10: GVH5 (D54E)/CVL3 + YTE (antibody, V domains shown)
VH: B5 VH
VL: B5 VL with I2N, S60D, P80A, F83V, T85V
B11: CVH4 (D54E)/CVL3 + YTE (antibody, V domains shown)
VH: B6 VH with N77K, T78N
VL: B5 VL with I2N, S60D, P80A, F83V, T85V
B12: CVH3 (D54E)/CVL3 (antibody, V domains shown)
VH: B6 VH
VL: B5 VL with I2N, S60D, P80A, F83V, T85V
B13: VH0/VL0 (antibody, V domains shown)
VH: B3 VH with T3I, V18L, M29L, K83Q, S85T, S86T, S92T, D105E, M112I
VL: B3 VL with I2N, A25T, G32A, V34A, T56I, G65S, Y71F, K107N

Target: T1, mouse IL-11
Assay: SPR steady state

Binder	Kd
B1	28.2 nM

Target: T2, human IL-11
Assay: SPR

Binder	Kd
B1	0.0213 nM

Target: T2, human IL-11
Assay: SPR
Remark: another data set of the same source

Binder	Kd
B1	0.0238 nM
B2	0.145 nM
B3	0.0174 nM
B4	0.424 nM

Target: T2, human IL-11
Assay: SPR
Remark: another data set of the same source

Binder	Kd
B1	0.0214 nM

Target: T1, mouse IL-11
Assay: SPR

Binder	Kd
B1	28.2 nM
B2	3.77 nM
B3	0.0502 nM
B4	0.875 nM

Target: T1, mouse IL-11
Assay: SPR
Remark: another data set of the same source

Binder	Kd
B3	0.159 nM

Target: T2, human IL-11
Assay: SPR 25C

Binder	Kd
B5	0.0966 nM
B6	0.00142 nM
B7	0.00748 nM
B8	0.0181 nM
B9	0.0792 nM
B10	0.00989 nM
B11	0.00334 nM
B12	0.00501 nM
B13	0.00758 nM
